{
  "source": "patent US20240376221A1",
  "about": "(Genmab, published 2024)",
  "binders": {"B1": {"name": "IgG1-CD134-003 (antibody)", "heavy": "not shown", "light": "AAVLTQTPSPVSAAVGGTVTIKCQSSQIVVNNNFLSWYQQKPGQPPKLLIYDASNLASGVPDRFSGSGSGTQFTLTISGVQSDDAATYYCLGGYDDDAENAFGGGTEVVVQRTVAAPSVFIFPPSDEQLKSGTASVVCLLNNFYPREAKVQWKVDNALQSGNSQESVTEQDSKDSTYSLSSTLTLSKADYEKHKVYACEVTHQGLSSPVTKSFNRGEC", "notes": "rabbit-human chimeric, wild-type IgG1 Fc"}, "B2": {"name": "IgG1-CD134-012 (antibody)", "heavy": "not shown", "light": "DIVMTQTPASVEAAVGGTVTIKCQASENIYSSLAWYQQKPGQPPKLLIYRTSTLASGVPSRFKGSGSGTQFTLTISDLESDDAATYYCQSYYHNSGGGYDYGFGGGTEVVAKRTVAAPSVFIFPPSDEQLKSGTASVVCLLNNFYPREAKVQWKVDNALQSGNSQESVTEQDSKDSTYSLSSTLTLSKADYEKHKVYACEVTHQGLSSPVTKSFNRGEC", "notes": "rabbit-human chimeric IgG1"}, "B3": {"name": "IgG1-b12 (antibody)", "heavy": "not shown", "VL": "EIVLTQSPGTLSLSPGERATFSCRSSHSIRSRRVAWYQHKPGQAPRLVIHGVSNRASGISDRFSGSGSGTDFTLTITRVEPEDFALYYCQVYGASSYTFGQGTKLERK", "notes": "wild-type Fc domain; also called anti-HIV gp120 antibody IgG1-b12"}, "B4": {"name": "IgG1-CD134-003-HC6LC2 (antibody)", "heavy": "not shown", "light": "AAVLTQSPSSLSASVGDRVTITCQSSQIVVNNNFLSWYQQKPGKAPKLLIYDASNLASGVPDRFSGSGSGTDFTFTISSLQPEDIATYYCLGGYDDDAENAFGGGTKVEIKRTVAAPSVFIFPPSDEQLKSGTASVVCLLNNFYPREAKVQWKVDNALQSGNSQESVTEQDSKDSTYSLSSTLTLSKADYEKHKVYACEVTHQGLSSPVTKSFNRGEC", "notes": "variant of m1 without Fc mutations"}, "B5": {"name": "IgG1-CD134-003-HC6LC2-P329R-E345R (antibody)", "heavy": "not shown", "light": "B4 light", "notes": "humanized; human IgG1 with P329R and E345R (Eu); also called IgG1-CD134-003-HC6LC2-RR"}, "B6": {"name": "IgG1-CD134-007 (antibody)", "heavy": "not shown", "light": "AQVLTQTPSPVSAAVGGTVTISCQSSESVWNNNWLAWYQQKPGQPPNLLIYEASTLASGVSSRFKGSGSGTQFTLTVSEVQSDDAATYYCQGGYYDSSPIWTFGGGTEVVVKRTVAAPSVFIFPPSDEQLKSGTASVVCLLNNFYPREAKVQWKVDNALQSGNSQESVTEQDSKDSTYSLSSTLTLSKADYEKHKVYACEVTHQGLSSPVTKSFNRGEC", "notes": "rabbit-human chimeric IgG1"}},
  "key": {"[1]": {"biological_target": "T1, recombinant cynomolgus monkey OX40 (Acro Biosystems, cat. no. OXO-C5220) (cynomolgus monkey, UniProt P43489 29-216 (human entry), limits assumed)", "T1 construct": "bought soluble protein; also called Cyno OX40", "T1 chain": "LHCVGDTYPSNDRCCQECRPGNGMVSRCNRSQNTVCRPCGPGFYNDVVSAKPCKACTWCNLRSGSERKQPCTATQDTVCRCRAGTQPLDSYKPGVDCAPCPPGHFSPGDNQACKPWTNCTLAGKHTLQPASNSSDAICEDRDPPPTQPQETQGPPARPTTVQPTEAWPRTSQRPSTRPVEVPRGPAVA", "assay": "BLI, Ab on AHC sensor, OX40 analyte", "description": "(§1) Experiments were carried out while shaking at 1,000 RPM at 30° C. […] Next, AHC sensors were loaded with antibody (1 μg/mL in Sample Diluent) for 600 s. After a baseline measurement in sample diluent (100 s), the association (200 s) and dissociation (1,000 s) of human OX40 (Acro Biosystems, cat. no. OXO-H5224), and cynomolgus monkey OX40 (Acro Biosystems, cat. no. OXO-C5220) was determined using a concentration range of 0.78 to 800 nM with 2-fold dilution steps.\n(§2) Data were acquired using Data Acquisition Software v12.0 (Sartorius) and analyzed with Data Analysis Software v12.0 (Sartorius). Data traces were corrected per antibody by subtraction of the reference sensor. The Y-axis was aligned to the last 10 s of the baseline and Interstep Correction alignment to dissociation as well as Savitzky-Golay filtering were applied. Data traces with a response<0.05 nm were excluded from analysis. […] The data was fitted with the 1:1 model using a window of interest for the association of 200 s and dissociation times set at 50 s, 200 s and 1,000 s. The dissociation time was chosen based upon R² value, visual inspection of the curve and at least 5% signal decay during the dissociation step."}, "[2]": {"biological_target": "T2, human FcγRIa, cell surface-expressed (human, UniProt P12314 16-374)", "T2 construct": "whole, on cells; also called CD64; FcγR1a on ExpiCHO-S cells", "T2 sequence (P12314 16-374)": "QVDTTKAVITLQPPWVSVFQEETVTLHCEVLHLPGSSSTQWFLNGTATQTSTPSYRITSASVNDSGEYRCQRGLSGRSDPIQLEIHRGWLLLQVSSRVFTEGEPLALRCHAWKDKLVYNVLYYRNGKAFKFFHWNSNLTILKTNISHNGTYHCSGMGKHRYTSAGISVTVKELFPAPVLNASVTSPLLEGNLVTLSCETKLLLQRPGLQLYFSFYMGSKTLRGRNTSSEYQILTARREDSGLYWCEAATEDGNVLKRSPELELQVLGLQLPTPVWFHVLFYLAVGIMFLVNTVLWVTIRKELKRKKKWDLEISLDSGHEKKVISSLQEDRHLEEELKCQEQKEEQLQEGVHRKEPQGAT", "assay": "flow cytometry, ExpiCHO-S cells transfected with human FcγRIa"}, "[3]": {"biological_target": "T1, recombinant cynomolgus monkey OX40 …", "assay": "BLI, Ab on AHC sensor, OX40 analyte; * binding observed, less reliable fit", "description": "as §1, §2"}, "[4]": {"biological_target": "T3, His-tagged human recombinant FcγRIa (human, UniProt P12314 16-288)", "T3 construct": "bought; also called FcγRIa (SPR); not shown: His-tag", "T3 sequence (P12314 16-288 limits assumed)": "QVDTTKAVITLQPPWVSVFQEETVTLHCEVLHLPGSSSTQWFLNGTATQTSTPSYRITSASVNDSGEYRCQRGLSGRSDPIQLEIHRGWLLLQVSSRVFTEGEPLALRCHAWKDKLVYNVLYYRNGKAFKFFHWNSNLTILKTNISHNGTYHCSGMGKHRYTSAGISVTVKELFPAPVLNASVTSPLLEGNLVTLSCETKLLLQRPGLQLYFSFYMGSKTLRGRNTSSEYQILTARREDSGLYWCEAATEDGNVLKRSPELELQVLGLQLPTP", "assay": "SPR, His-tagged FcγRIa captured on an anti-His chip, antibody injected", "description": "(§3) Biacore Series S Sensor Chips CM5 (Cytiva, cat. no. 29104988) were covalently coated with anti-His antibody using amine-coupling and His capture kits (Cytiva, cat. no. BR100050 and cat. no. 29234602) according to the manufacturer's instructions. […] After three start-up cycles of HBS-EP+ buffer, antibody samples were injected for 12 cycles per sample to generate binding curves using antibody concentration ranges of 0 to 3,000 nM for FcγRIa and 0 to 10,000 nM for the other FcγRs. […] Dissociation from the anti-His-coated surface was performed by regeneration of the surface using 10 mM Glycine-HCl pH 1.5 (Cytiva, cat. no. BR100354)."}, "[5]": {"biological_target": "T3, His-tagged human recombinant FcγRIa", "assay": "SPR, His-tagged FcγRIa captured on an anti-His chip, antibody injected", "description": "as §3", "remark": "listed apart in the source"}, "[6]": {"biological_target": "T4, His-tagged human recombinant FcγRIIb (human, UniProt P31994 43-217)", "T4 construct": "bought; also called FcγRII2b [sic]; not shown: His-tag", "T4 sequence (looked up)": "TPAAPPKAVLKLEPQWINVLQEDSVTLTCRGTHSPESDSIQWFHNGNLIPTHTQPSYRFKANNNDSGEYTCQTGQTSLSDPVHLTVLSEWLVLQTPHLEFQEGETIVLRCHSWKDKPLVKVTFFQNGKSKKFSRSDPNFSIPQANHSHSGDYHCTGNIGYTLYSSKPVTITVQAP", "assay": "SPR, His-tagged FcγRIIb captured on an anti-His chip, antibody injected", "description": "as §3"}, "[7]": {"biological_target": "T5, His-tagged human recombinant FcγRIIa 167-His (human, UniProt P12318 34-218)", "T5 construct": "bought; also called FcγRIIa[H]; not shown: His-tag", "T5 sequence (looked up)": "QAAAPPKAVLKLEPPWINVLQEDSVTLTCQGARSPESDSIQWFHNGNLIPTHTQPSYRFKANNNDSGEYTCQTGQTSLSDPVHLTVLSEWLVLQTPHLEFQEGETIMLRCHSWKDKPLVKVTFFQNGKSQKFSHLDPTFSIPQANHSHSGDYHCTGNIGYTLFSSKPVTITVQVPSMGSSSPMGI", "assay": "SPR, His-tagged FcγRIIa[H] captured on an anti-His chip, antibody injected", "description": "as §3"}, "[8]": {"biological_target": "T6, His-tagged human recombinant FcγRIIa 167-Arg (human, UniProt P12318 34-218)", "T6 construct": "bought; also called FcγRIIa[R]; not shown: His-tag", "T6 sequence (looked up)": "T5 sequence (looked up) with H134R", "assay": "SPR, His-tagged FcγRIIa[R] captured on an anti-His chip, antibody injected", "description": "as §3"}, "[9]": {"biological_target": "T7, His-tagged human recombinant FcγRIIIa 176-Phe (human, UniProt P08637 17-208)", "T7 construct": "bought; also called FcγRIIIa[F]; not shown: His-tag", "T7 sequence (P08637 17-208 limits assumed)": "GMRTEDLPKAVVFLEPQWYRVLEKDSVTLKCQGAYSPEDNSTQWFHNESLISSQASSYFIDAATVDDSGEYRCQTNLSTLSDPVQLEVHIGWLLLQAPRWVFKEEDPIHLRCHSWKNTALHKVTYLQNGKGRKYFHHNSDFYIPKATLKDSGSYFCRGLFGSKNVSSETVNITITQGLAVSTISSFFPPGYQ", "assay": "SPR, His-tagged FcγRIIIa[F] captured on an anti-His chip, antibody injected", "description": "as §3"}, "[10]": {"biological_target": "T8, His-tagged human recombinant FcγRIIIa 176-Val (human, UniProt P08637 17-208)", "T8 construct": "bought; also called FcγRIIIa[V]; not shown: His-tag", "T8 sequence (P08637 17-208 F176V limits assumed)": "as the sequence (P08637 17-208 limits assumed) above, with F160V counted along it", "assay": "SPR, His-tagged FcγRIIIa[V] captured on an anti-His chip, antibody injected", "description": "as §3"}},
  "note": "Substitutions are numbered along the chain they refer to. In names and notes the source's numbering stands. Where two headings read alike, the source gives them in different places.",
  "data": [
    {"binder": "B1", "values": [
      {"measurement": "Kd", "setting": "[1]", "result": 3.5, "unit": "nM"},
      {"measurement": "koff", "setting": "[1]", "result": 0.00096, "unit": "s⁻¹"},
      {"measurement": "kon", "setting": "[1]", "result": 280000, "unit": "M⁻¹ s⁻¹"},
      {"measurement": "EC50 (read off the curve)", "setting": "[2]", "result": "~0.7", "unit": "µg/mL"}
    ]},
    {"binder": "B2", "values": [
      {"measurement": "Kd", "setting": "[3]", "result": 180, "unit": "nM"},
      {"measurement": "koff", "setting": "[3]", "result": 0.018, "unit": "s⁻¹"},
      {"measurement": "kon", "setting": "[3]", "result": 98000, "unit": "M⁻¹ s⁻¹"}
    ]},
    {"binder": "B3", "values": [
      {"measurement": "EC50 (read off the curve)", "setting": "[4]", "result": "~30", "unit": "nM"},
      {"measurement": "EC50 (read off the curve)", "setting": "[5]", "result": "~20", "unit": "nM"},
      {"measurement": "binding result", "setting": "[6]", "result": "binds"},
      {"measurement": "binding result", "setting": "[7]", "result": "binds"},
      {"measurement": "binding result", "setting": "[8]", "result": "binds"},
      {"measurement": "binding result", "setting": "[9]", "result": "binds"},
      {"measurement": "binding result", "setting": "[10]", "result": "binds"}
    ]},
    {"binder": "B4", "values": [
      {"measurement": "binding result", "setting": "[2]", "result": "binds"}
    ]},
    {"binder": "B5", "values": [
      {"measurement": "Kd", "setting": "[1]", "result": 27, "unit": "nM"},
      {"measurement": "koff", "setting": "[1]", "result": 0.0029, "unit": "s⁻¹"},
      {"measurement": "kon", "setting": "[1]", "result": 110000, "unit": "M⁻¹ s⁻¹"}
    ]},
    {"binder": "B6", "values": [
      {"measurement": "Kd", "setting": "[1]", "result": 7.1, "unit": "nM"},
      {"measurement": "koff", "setting": "[1]", "result": 0.0018, "unit": "s⁻¹"},
      {"measurement": "kon", "setting": "[1]", "result": 260000, "unit": "M⁻¹ s⁻¹"}
    ]}
  ]
}
